Measured values from US20230181756A1 (Novartis, published 2023).

Legend:
CCR8 = target: T1, CCR8 (UniProt P51685 1-355, limits assumed); experiment: FACS on CHO-CCR8 cells
T1 construct: whole, on cells; also called CHO-CCR8

CXCR4 = target: T2, CXCR4 (UniProt P61073 1-352, limits assumed); experiment: FACS on HEK293-CXCR4 cells
T2 construct: whole, on cells; also called HEK293-CXCR4

CCR9 = target: T3, CCR9 (UniProt P51686 1-369, limits assumed); experiment: FACS on PF382 cells (CCR7-/CCR9+/CCR6+)
T3 construct: whole, on cells; also called PF382 cells (CCR7-/CCR9+/CCR6+)
T3 sequence (looked up): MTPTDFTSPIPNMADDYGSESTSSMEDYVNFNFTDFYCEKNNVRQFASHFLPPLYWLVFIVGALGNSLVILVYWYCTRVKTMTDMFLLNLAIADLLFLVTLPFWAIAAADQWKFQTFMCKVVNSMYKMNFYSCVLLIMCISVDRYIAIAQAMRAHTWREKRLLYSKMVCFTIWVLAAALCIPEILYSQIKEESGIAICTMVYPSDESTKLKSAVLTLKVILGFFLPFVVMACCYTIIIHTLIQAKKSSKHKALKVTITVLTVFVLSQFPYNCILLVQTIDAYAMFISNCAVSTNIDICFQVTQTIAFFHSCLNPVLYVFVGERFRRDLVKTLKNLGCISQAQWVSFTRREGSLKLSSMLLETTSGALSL

CCR6 = target: T4, CCR6 (UniProt P51684 1-374, limits assumed); experiment: FACS on PF382 cells (CCR7-/CCR9+/CCR6+)
T4 construct: whole, on cells; also called PF382 cells (CCR7-/CCR9+/CCR6+)
T4 sequence (looked up): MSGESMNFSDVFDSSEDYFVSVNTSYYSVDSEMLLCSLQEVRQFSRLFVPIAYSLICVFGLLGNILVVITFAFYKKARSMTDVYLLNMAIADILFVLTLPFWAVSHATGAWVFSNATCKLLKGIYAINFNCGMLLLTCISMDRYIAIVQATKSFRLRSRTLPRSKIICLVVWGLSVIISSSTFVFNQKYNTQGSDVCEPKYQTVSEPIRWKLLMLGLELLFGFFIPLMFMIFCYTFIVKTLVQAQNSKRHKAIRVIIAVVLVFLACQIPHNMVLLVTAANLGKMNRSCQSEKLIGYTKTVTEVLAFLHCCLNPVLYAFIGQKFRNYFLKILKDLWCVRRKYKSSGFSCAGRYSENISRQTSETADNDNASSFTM

human CCR7 [1] = target: T5, human CCR7 (human, UniProt P32248 25-378); experiment: FACS titration, human CD4+ T cells from PBMC
T5 construct: The assay field tells which; also called hCCR7; NIH3T3.hCCR7
T5 sequence: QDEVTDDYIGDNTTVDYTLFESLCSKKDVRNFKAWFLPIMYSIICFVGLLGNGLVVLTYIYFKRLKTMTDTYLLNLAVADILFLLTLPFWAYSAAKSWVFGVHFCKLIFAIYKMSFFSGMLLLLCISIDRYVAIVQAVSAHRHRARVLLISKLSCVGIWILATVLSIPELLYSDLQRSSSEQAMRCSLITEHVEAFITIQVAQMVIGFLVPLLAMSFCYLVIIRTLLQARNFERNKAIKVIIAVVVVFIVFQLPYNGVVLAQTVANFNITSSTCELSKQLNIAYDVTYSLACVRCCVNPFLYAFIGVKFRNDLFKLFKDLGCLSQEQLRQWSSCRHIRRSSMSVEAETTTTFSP

human CCR7 [2] = target: T5, human CCR7; experiment: ELISA on CCR7-expressing VLPs, pH 5.8 buffer
human CCR7 [3] = target: T5, human CCR7; experiment: ELISA on CCR7-expressing VLPs, pH 7.4 buffer
human CCR7 [4] = target: T5, human CCR7; experiment: ELISA on CCR7-expressing VLPs, Kd at pH 5.8 over Kd at pH 7.4
human CCR7 [5] = target: T5, human CCR7; experiment: cell-based or functional assay
human CCR7 [6] = target: T5, human CCR7; experiment: FACS titration, DEL cancer cells (receptor density ~100,000)
human CCR7 [7] = target: T5, human CCR7; experiment: FACS titration, human CD4+ T cells (receptor density <2,000)
[8] = target: T6, recombinant hCCR7 (Origene #TP306614) (human, UniProt P32248 25-378, limits assumed); experiment: ELISA, recombinant CCR7 coated at 3.5 ug/ml, antibody titrated
T6 construct: Bought protein coated on ELISA plates; also called recombinant CCR7
T6 sequence (looked up): T5 sequence

human CCR7 [9] = target: T5, human CCR7; experiment: FACS titration, NIH3T3.hCCR7 cells (receptor density >1,000,000)
[10] = target: T6, recombinant hCCR7 (Origene #TP306614); experiment: ELISA on plate-coated recombinant hCCR7, antibody titrated, anti-hFc-HRP detection, OD 650 nm
human CCR7 [11] = target: T5, human CCR7; experiment: FACS on DEL cells, antibody titrated to 100 nM, panel 'ligand 0uM' (no CCL19), anti-hFc.PE detection
human CCR7 [12] = target: T5, human CCR7; experiment: FACS on DEL cells, antibody titrated to 100 nM together with a constant 1 uM CCL19 (competitor), panel 'ligand 1uM', anti-hFc.PE detection
human CCR7 [13] = target: T5, human CCR7; experiment: cell-based or functional assay; remark: listed apart in the source
human CCR7 [14] = target: T5, human CCR7; experiment: FACS titration, Jeko-1 cancer cells (CCR7+)
rat CCR7 = target: T7, rat CCR7 (rat, UniProt P47774 25-378 (mouse entry)); experiment: FACS titration, NIH3T3 cells expressing rat CCR7
T7 construct: also called NIH3T3.rat CCR7
T7 chain: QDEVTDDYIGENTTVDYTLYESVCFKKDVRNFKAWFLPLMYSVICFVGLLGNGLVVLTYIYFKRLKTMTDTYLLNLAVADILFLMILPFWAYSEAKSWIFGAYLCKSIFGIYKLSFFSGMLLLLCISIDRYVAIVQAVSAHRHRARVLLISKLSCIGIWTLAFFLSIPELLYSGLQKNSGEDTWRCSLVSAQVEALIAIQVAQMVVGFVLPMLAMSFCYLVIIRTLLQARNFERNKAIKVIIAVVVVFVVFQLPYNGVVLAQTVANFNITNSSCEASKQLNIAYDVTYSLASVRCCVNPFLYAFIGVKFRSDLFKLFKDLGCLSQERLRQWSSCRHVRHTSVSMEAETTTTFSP

human CCR7 [15] = target: T5, human CCR7; experiment: FACS titration, NIH3T3 cells expressing human CCR7
mouse CCR7 = target: T8, mouse CCR7 (mouse, UniProt P47774 25-378); experiment: FACS titration, NIH3T3 cells expressing mouse CCR7
T8 construct: also called NIH3T3.mouse CCR7
T8 sequence: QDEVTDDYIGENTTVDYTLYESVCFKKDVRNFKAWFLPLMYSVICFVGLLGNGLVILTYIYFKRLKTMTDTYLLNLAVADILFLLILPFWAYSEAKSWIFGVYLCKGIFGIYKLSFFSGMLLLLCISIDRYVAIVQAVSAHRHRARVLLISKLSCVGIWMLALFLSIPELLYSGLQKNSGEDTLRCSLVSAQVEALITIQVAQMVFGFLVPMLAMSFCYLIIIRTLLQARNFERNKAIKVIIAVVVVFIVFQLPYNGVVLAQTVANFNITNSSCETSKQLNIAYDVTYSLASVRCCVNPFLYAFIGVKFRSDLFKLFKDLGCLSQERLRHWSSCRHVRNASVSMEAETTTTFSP

T2 sequence (P61073 whole entry): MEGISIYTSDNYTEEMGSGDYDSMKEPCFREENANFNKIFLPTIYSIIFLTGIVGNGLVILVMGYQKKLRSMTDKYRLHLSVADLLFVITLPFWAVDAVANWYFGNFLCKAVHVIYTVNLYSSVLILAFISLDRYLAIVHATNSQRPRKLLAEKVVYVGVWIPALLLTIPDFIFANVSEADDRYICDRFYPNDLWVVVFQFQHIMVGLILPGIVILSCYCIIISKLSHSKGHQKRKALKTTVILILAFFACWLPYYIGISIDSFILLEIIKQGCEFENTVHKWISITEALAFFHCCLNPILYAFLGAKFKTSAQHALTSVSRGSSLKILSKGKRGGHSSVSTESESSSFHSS
T1 sequence (P51685 whole entry): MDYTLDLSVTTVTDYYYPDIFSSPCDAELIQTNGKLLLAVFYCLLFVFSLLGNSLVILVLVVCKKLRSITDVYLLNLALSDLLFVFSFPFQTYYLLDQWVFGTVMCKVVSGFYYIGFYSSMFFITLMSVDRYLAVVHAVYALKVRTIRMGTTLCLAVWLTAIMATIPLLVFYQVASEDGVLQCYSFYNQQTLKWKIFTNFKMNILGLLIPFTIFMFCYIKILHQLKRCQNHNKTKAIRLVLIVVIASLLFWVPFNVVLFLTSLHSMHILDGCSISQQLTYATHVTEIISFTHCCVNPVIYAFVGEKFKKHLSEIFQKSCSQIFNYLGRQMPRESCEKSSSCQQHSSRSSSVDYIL

B1: 684E12 humanized CysMab (Fc Wild Type) (antibody, V domains shown)
VH: EVQLVESGGGLVKPGGSLRLSCAASGFTFSNFAMSWVRQAPGKGLEWVSTISTGGTYTYYPDSVKGRFTISRDNAKNSLYLQMNSLRAEDTAVYYCARRGYSGVDKWGQGTTVTVSS
VL: DVVMTQSPLSLPVTLGQPASISCKSGQSLLDSTGKTYLNWFLQRPGQSPRRLIYLVSKLDSGVPDRFSGSGSGTDFTLKISRVEAEDVGVYYCWQGTHFPQTFGGGTKLEIK
notes: Human IgG1 kappa with CysMab cysteines; also called Humanized CysMab antibody 684E12
CCR8
  binding result: no binding (tested: 5 ug/ml)
CXCR4
  binding result: no binding (tested: 5 ug/ml)
CCR9
  binding result: no binding (tested: 5 ug/ml)
CCR6
  binding result: no binding (tested: 5 ug/ml)
Human CCR7 [1]
  EC50: 6.7 nM
Human CCR7 [2]
  Kd: 0.504 nM
Human CCR7 [3]
  Kd: 0.0374 nM
Human CCR7 [4]
  fold change (pH 5.8/7.4): 13 fold

B2: Humanized 674J13.CysMab.DAPA (antibody, human IgG1, kappa, V domains shown)
VH: DVQLQESGPGLVKPSQTLSLTCTVSGYSITSGYSWHWIRQHPGKGLEWMAHIHSSGSTNYNPSLKSRITISRDTSKNQFSLKLSSVTAADTAVYYCARGGVQAFAYWGQGTLVTVSS
VL: EIVLTQSPATLSASPGERVTMSCSASSSVIYMHWYQQKPGQAPRRWIYDTSKLASGVPARFSGSGSGTDYTLTISSMEPEDAAVYYCQQWSSNPLTFGQGTKLEIKR
notes: Human IgG1 kappa with D265A/P329A and CysMab cysteines; also called 674J13 (Humanized, CysMab DAPA)
Human CCR7 [5]
  pHrodo (6 h MFI), internalization, CD4+ T cells (receptor numbers 2000): 402 MFI
  pHrodo (6 h MFI), internalization, CMLT1 cells (receptor numbers 19583): 561 MFI
  pHrodo (6 h MFI), internalization, DEL cells (receptor numbers 110685): 3780 MFI
  pHrodo (6 h MFI), internalization, JVM3 cells (receptor numbers 8717): 146 MFI
  pHrodo (6 h MFI), internalization, Jeko-1 cells (receptor numbers 28852): 1390 MFI
  pHrodo (6 h MFI), internalization, KE97 cells (receptor numbers 152093): 4420 MFI
  pHrodo (6 h MFI), internalization, L540 cells (receptor numbers 167549): 11800 MFI
  pHrodo (6 h MFI), internalization, L1236 cells (receptor numbers 61602): 5820 MFI
  pHrodo (6 h MFI), internalization, MJ cells (receptor numbers 111121): 3260 MFI
  pHrodo (6 h MFI), internalization, MOTN1 cells (receptor numbers 84200): 2540 MFI
  pHrodo (6 h MFI), internalization, Mec2 cells (receptor numbers 50840): 3000 MFI
Human CCR7 [6]
  EC50: 0.47 nM
Human CCR7 [7]
  EC50: ~2 nM
[8]
  Kd: 0.006 nM
Human CCR7 [9]
  EC50: 0.64 nM
[10]
  EC50 (read off the curve): ~0.07 nM
Human CCR7 [11]
  EC50 (read off the curve): ~2 nM
Human CCR7 [12]
  EC50 (read off the curve): ~2 nM

B3: 684E12 non-humanized CysMab (antibody, human IgG1, kappa, V domains shown)
VH: EVHLVESGGGLVKPGGSLKLSCAASGFTFSNFAMSWVRQTPEKRLEWVATISTGGTYTYYPDSVKGRFTISRDNAKKTLYLQMSSLRSEDTAMYYCTRRGYDGVDKWGQGTTLTVSS
VL: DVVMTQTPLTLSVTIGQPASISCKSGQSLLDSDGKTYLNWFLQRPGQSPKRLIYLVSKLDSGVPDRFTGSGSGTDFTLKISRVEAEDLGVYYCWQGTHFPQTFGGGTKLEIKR
notes: Chimeric human IgG1 kappa with CysMab cysteines and wild type Fc; also called Parental 684E12 hIgG1 CysMab; Non-humanized CysMab antibody 684E12
Human CCR7 [13]
  ADCC activity; IC50 (nM); reporter assay, JVM2 targets and Jurkat-V158 effectors: 2.63 nM
Human CCR7 [14]
  EC50: 12 nM
Rat CCR7
  binding result: no binding
Human CCR7 [15]
  EC50: > 30 nM
Mouse CCR7
  binding result: no binding
